Experimental data: publication PMC11441684, “A suboptimal OCT4-SOX2 binding site facilitates the naïve-state specific function of a Klf4 enhancer”

Key:
OCT4;SOX2 = OCT4;SOX2 (human;human, UniProt Q01860;P48431 1-360;1-317, |); assay: EMSA; 19 nM OCT4, 16 nM SOX2; high occupancy; 12.5 mM K-Hepes pH 7.6, 50 mM NaCl, 1 mM MgCl2, 10% glycerol, 0.1% NP-40, 0.1 mg/mL BSA, 1 mM DTT, 1 ug/uL poly dG:dC, 2 nM probe, 30 C 15 min; 4% acrylamide gel, 0.5X TGE; settings: protein: recombinant;recombinant; tags: 6xHis (pSKB3-6H-TEV);6xHis (pSKB3-6H-TEV); copies: 1;1; label: Cy5 on strand 2 (extended primer S1); blunt
OCT4 = OCT4 (human, UniProt Q01860 1-360); assay: EMSA; 19 nM OCT4; OCT4-only band is the majority of shifted DNA in the OCT4 + SOX2 reaction; 12.5 mM K-Hepes pH 7.6, 50 mM NaCl, 1 mM MgCl2, 10% glycerol, 0.1% NP-40, 0.1 mg/mL BSA, 1 mM DTT, 1 ug/uL poly dG:dC, 2 nM probe, 30 C 15 min; 4% acrylamide gel, 0.5X TGE; settings: protein: recombinant; tags: 6xHis (pSKB3-6H-TEV); label: Cy5 on strand 2 (extended primer S1); blunt
Sequence of OCT4 (Q01860 whole entry): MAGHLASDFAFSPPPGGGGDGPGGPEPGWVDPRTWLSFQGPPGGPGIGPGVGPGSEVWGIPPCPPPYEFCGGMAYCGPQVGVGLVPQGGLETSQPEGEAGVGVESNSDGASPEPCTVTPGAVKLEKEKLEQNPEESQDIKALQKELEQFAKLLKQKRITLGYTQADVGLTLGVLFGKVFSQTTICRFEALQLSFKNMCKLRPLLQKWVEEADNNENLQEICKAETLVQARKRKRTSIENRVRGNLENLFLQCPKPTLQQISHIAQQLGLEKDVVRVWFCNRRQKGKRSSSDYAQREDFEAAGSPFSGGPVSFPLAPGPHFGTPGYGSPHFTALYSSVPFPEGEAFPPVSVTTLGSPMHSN

Sequence of OCT4;SOX2 (Q01860 whole entry, chain 1 of 2): as the sequence (Q01860 whole entry) above
Sequence of OCT4;SOX2 (P48431 whole entry, chain 2 of 2): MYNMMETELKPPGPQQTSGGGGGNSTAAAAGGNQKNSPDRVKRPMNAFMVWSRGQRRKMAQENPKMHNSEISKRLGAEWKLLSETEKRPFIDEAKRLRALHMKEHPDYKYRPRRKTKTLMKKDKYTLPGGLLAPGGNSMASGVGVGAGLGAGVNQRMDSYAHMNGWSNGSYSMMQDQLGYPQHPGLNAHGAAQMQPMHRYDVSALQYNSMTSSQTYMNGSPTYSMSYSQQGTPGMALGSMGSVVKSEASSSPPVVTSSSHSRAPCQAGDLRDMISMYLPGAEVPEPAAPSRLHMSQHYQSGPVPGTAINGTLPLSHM

Binder	binding result (OCT4;SOX2)	binding result (OCT4)
Nanog OS site probe (dsDNA) DNA 1: GTTACTCTGCAGCTACTTTTGCATTACAATGGCCTTGGTGAGACTGG DNA 2: CCAGTCTCACCAAGGCCATTGTAATGCAAAAGTAGCTGCAGAGTAAC	binds	–
Klf4-E1 OS site probe (dsDNA) DNA 1: GTTACTCTGCAGCTACCTTTGCATATCAAATGCCTTGGTGAGACTGG DNA 2: CCAGTCTCACCAAGGCATTTGATATGCAAAGGTAGCTGCAGAGTAAC	–	binds
